The target of this data set is T1, 33-mer peptide fragment of α-gliadin, LQLQPFPQPQLPYPQPQLPYPQPQLPYPQPQPF (SEQ ID NO:1).
T1 chain: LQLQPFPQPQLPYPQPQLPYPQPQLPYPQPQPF

From patent publication US9011842 come the findings set out here.

Values joined by “and” are separate entries in the source; they are usually repeats but may differ in a detail not shown here. Equal values may be shown once.

B1: Oryzin (protein)
chain: GLTTQKSAPWGLGSISHKGQQSTDYIYDTSAGEGTYAYVVDSGVNVDHEEFEGRASKAYNAAGGQHVDSIGHGTHVSGTIAGKTYGIAKKASILSVKVFQGESSSTSVILDGFNWAANDIVSKKRTSKAAINMSLGGGYSKAFNDAVENAFEQGVLSVVAAGNENSDAGQTSPASAPDAITVAAIQKSNNRASFSNFGKVVDVFAPGQDILSAWIGSSSATNTISGTSMATPHIVGLSLYLAALENLDGPAAVTKRIKELATKDVVKDVKGSPNLLAYNGNA
For the protein B1, the “degradation of the 33-mer peptide (ELISA of intact 33-mer), 0.1 mg/ml enzyme, SIF pH 6.8” value was “Oryzin alone did not degrade the 33-mer peptide”; the “degradation of the 33-mer peptide (ELISA), 60 min, SIF pH 6.8, lowest enzyme concentrations” value is on record as “Oryzin, at the lowest concentrations, did not degrade the 33-mer peptide”; the “percent of the 33-mer peptide degraded (ELISA), 60 min, SIF pH 6.8, 0.4 mg/ml and 0.8 mg/ml enzyme” value was “at higher concentrations (0.4 mg/ml and 0.8 mg/ml), Oryzin degraded about 10% to about 20% of the 33-mer peptide”.

B2: papain (protein)
chain: IPEYVDWRQKGAVTPVKNQGSCGSCWAFSAVVTIEGIIKIRTGNLNEYSEQELLDCDRRSYGCNGGYPWSALQLVAQYGIHYRNTYPYEGVQRYCRSREKGPYAAKTDGVRQVQPYNEGALLYSIANQPVSVVLEAAGKDFQLYRGGIFVGPCGNKVDHAVAAVGYGPNYILIKNSWGTGWGENGYIRIKRGTGNSYGVCGLYTSSFYPVKN
On to B2, for which the “hydrolysis of the 33-mer peptide (HPLC-MS), 1 hour, pH 4.5” value is “Papain completely hydrolyzed the 33-mer peptide at a pH of about 4.5”.

B3: proteinase K (protein)
chain: AAQTNAPWGLARISSTSPGTSTYYYDESAGQGSCVYVIDTGIEASHPEFEGRAQMVKTYYYSSRDGNGHGTHCAGTVGSRTYGVAKKTQLFGVKVLDDNGSGQYSTIIAGMDFVASDKNNRNCPKGVVASLSLGGGYSSSVNSAAARLQSSGVMVAVAAGNNNADARNYSPASEPSVCTVGASDRYDRRSSFSNYGSVLDIFGPGTSILSTWIGGSTRSISGTSMATPHVAGLAAYLMTLGKTTAASACRYIADTANKGDLSNIPFGTVNLLAYNNYQA
Consider B3, for which the “hydrolysis of the 33-mer peptide (HPLC-MS), 15 hours, SIF pH 6.8” value is recorded as “at intestinal conditions (pH≈6.8), proteinase K did not hydrolyze most of the 33-mer peptide”.

B4: Carboxypeptidase Y derived from Saccharomyces cerevisiae (protein)
chain: KIKDPKILGIDPNVTQYTGYLDVEDEDKHFFFWTFESRNDPAKDPVILWLNGGPGCSSLTGLFFELGPSSIGPDLKPIGNPYSWNSNATVIFLDQPVNVGFSYSGSSGVSNTVAAGKDVYNFLELFFDQFPEYVNKGQDFHIAGESYAGHYIPVFASEILSHKDRNFNLTSVLIGNGLTDPLTQYNYYEPMACGEGGEPSVLPSEECSAMEDSLERCLGLIESCYDSQSVWSCVPATIYCNNAQLAPYQRTGRNVYDIRKDCEGGNLCYPTLQDIDDYLNQDYVKEAVGAEVDHYESCNFDINRNFLFAGDWMKPYHTAVTDLLNQDLPILVYAGDKDFICNWLGNKAWTDVLPWKYDEEFASQKVRNWTASITDEVAGEVKSYKHFTYLRVFNGGHMVPFDVPENALSMVNEWIHGGFSL
For the protein B4, the “digestion of the 33-mer peptide (HPLC-MS), in vitro gastrointestinal model with pepsin, trypsin and chymotrypsin present” value was “GDEP-M, CPY, and the combination of GDEP-M and CPY efficiently digested the 33-mer peptide in the artificial gastrointestinal condition”; the “hydrolysis of the 33-mer peptide (HPLC-MS and ELISA), pH 5.0” value is “CPY, MX-PEP, and AN-PEP hydrolyze the 33-mer peptide. AN-PEP appears to have the strongest activity against the 33-mer peptide, followed by CPY and then MX-PEP”; the “hydrolysis of the 33-mer peptide (HPLC-MS), 4 hours, SIF pH 6.8” value was “CPY efficiently hydrolyzed the 33-mer peptide and residual peptides were approximately 20 amino acids in length”; the “hydrolysis of the 33-mer peptide (HPLC-MS), 4 hours, buffer pH 4.0 to 7.0” value was “CPY completely hydrolyzed the 33-mer peptide at acidic pH”. Further, the “percent of the 33-mer peptide digested (ELISA), in vitro gastrointestinal model with pepsin, trypsin and chymotrypsin present” value is given as “CPY alone digested about 95% of the 33-mer peptide”.

B5: Neutral protease II (protein)
chain: TEVTDCKGDAESSLTTALSNAAKLANQAAEAAESGDESKFEEYFKTTDQQTRTTVAERLRAVAKEAGSTSGGSTTYHCNDPYGYCEPNVLAYTLPSKNEIANCDIYYSELPPLAQKCHAQDQATTTLHEFTHAPGVYQPGTEDLGYGYDAATQLSAQDALNNADSYALYANAIELKC
With B5, the “degradation of the 33-mer peptide (ELISA of intact 33-mer), 0.1 mg/ml enzyme, SIF pH 6.8” value was “NP I and NP II each exhibited a limited ability to degrade the 33-mer peptide”; the “percent of the 33-mer peptide degraded (ELISA), 60 min, SIF pH 6.8” value is reported as “NP II alone degraded about 20% to about 30% of the 33-mer peptide”.
